Data as given in US20250059270A1.

Legend:
[1] = target: human IL-6R on HEK-Blue IL6 reporter cells (human) (UniProt P08887); experiment: cell-based or functional assay
hyper IL-6 = experiment: cell-based or functional assay

Sequence of human IL-6R on HEK-Blue IL6 reporter cells (human) (P08887 20-468): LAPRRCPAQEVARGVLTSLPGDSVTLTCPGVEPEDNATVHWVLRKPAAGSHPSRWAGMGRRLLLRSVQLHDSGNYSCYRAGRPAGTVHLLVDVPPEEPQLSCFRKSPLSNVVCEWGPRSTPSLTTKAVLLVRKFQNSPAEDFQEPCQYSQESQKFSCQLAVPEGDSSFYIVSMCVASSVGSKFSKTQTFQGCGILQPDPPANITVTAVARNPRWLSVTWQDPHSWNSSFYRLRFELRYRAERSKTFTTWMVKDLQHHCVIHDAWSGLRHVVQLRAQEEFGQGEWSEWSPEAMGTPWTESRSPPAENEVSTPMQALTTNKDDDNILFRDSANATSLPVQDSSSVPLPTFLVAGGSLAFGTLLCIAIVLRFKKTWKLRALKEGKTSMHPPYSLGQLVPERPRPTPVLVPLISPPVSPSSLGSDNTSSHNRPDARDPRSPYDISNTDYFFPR

IC50, HEK-Blue IL6 reporter cells, 20 pM IL-6 [1]: 1490 pM
IC50, cis-signaling, HEK-Blue IL6 cells, 20 pM free IL-6 [1]: 12.9 nM
IC90, HEK-Blue IL6 reporter cells, 20 pM IL-6 [1]: 23700 pM
trans-signaling, HEK-Blue IL6 cells, 200 pM hyper IL-6 (hyper IL-6): > 1 µM
B1: Tocilizumab (antibody, part only; not given: constant regions, V domains shown, not shown: another chain or arm of the molecule)
VH: QVQLQESGPGLVRPSQTLSLTCTVSGYSITSDHAWSWVRQPPGRGLEWIGYISYSGITTYNPSLKSRVTMLRDTSKNQFSLRLSSVTAADTAVYYCARSLARTTAMDYWGQGSLVTVSS
VL: DIQMTQSPSSLSASVGDRVTITCRASQDISSYLNWYQQKPGKAPKLLIYYTSRLHSGVPSRFSGSGSGTDFTFTISSLQPEDIATYYCQQGNTLPYTFGQGTKVEIK
